For assay [1], the target named is T1, TNFR2-Fas chimeric receptor (TNFR2-ED and Fas) on mouse embryonic fibroblasts (UniProt P20333 23-257; P25445 191-335).
T1 construct: extracellular domain;domain: cytoplasmic domain; Stably expressed on mouse embryonic fibroblasts
T1 sequence (looked up): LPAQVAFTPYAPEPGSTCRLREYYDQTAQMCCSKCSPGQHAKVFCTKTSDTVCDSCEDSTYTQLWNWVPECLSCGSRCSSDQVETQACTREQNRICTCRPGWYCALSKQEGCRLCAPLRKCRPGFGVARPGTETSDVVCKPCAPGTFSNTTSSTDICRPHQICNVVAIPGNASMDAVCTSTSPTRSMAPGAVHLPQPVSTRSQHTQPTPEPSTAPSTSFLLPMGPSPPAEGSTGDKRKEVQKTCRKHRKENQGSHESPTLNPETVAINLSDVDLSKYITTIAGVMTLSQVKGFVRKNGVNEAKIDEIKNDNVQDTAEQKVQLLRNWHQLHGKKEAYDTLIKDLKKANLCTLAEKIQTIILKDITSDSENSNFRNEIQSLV
The assay can be described thus: indirect immunofluorescence flow cytometry on transfected mouse embryonic fibroblasts. How it is done:
These transfectants were incubated on ice for two hours with 2.5 μg/ml of IZI-06.1-Fab (A-C, E, white histograms), the TNFR1-specific antibody mAb225 (D and F, white histograms), the TNFR2-specific antibody 80M2 (B, white+bold histogram) or were only treated with secondary antibodies as control (gray histograms). The incubation buffer was PBA (PBS+0.05% bovine serum albumin+0.02% NaN3). Cells were incubated with FITC-labeled secondary antibodies (80M2 and mAb225: Goat anti-murine IgG; IZI-06.1 Fab: Goat anti-HIS-tag) and cells were analyzed by flow cytometry. Cells were gated for viable cells and total fluorescence intensities (MnX) are given for each antibody. (Con=control values).
A His-tag positive IZI-06.1-Fab is used to determine specificity of TNFR1 binding or TNFR1-Fas binding, respectively as well as for characterization of the epitope recognized by the antibody derivative. […] This construct, however, is readily detected by another TNFR1-specific mab, mab225 (FIG. 7D).

Assay [2] deals with T2, TNFR1-Fas chimeric receptor (extracellular domain of TNFR1 and cytoplasmic domain of death receptor Fas) on … (human, UniProt P19438 30-211; P25445 191-335).
T2 construct: extracellular domain;domain: cytoplasmic domain; Stably expressed on mouse embryonic fibroblasts; also called TNFR1-Fas chimera
T2 sequence (looked up): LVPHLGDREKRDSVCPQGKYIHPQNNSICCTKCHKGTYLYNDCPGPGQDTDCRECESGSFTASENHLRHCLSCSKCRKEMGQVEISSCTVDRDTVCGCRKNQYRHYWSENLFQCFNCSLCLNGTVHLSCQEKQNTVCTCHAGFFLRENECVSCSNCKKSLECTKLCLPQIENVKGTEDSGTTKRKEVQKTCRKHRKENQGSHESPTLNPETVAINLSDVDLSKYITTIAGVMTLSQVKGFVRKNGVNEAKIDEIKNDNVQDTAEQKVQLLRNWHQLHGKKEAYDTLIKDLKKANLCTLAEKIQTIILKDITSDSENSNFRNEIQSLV
In words: saturation binding of 125I-labelled Fab to TNFR1-Fas positive mouse fibroblasts on ice, one-site hyperbola and Scatchard plot. How it is done: Nonspecific binding has been subtracted.
To determine the affinity (KD value) of IZI-06.1 Fab, 200.000 TNFR1-Fas positive cells are incubated on ice for three hours with increasing concentrations of labelled IZI-06.1 (2.5-50 ng in a total volume of 150 μl). As binding buffer, phosphate buffered saline+2% fetal calf serum+0.02% NaN₃ is used. Non-specific binding is determined by co-incubating cells with the 180-fold respective concentration of unlabelled IZI-06.1. Bound ¹²⁵I-Fab is determined with a gamma-counter and resulting data is used to fit a one-site binding hyperbola that contains the saturation binding constant KD: […]

B1: IZI-06.1 Fab (Fab, V domains shown)
VH: QVQLVQSGAEVKKPGSSVKVSCKASGYTFTDFYINWVRQAPGQGLEWIGEIYPYSGHAYYNEKFKARVTITADKSTSTAYMELSSLRSEDTAVYYCARWDFLDYWGQGTTVTVSS
VL: DIVMTQSPLSLPVTPGEPASISCRSSQSLLHSNGNTYLHWYLQKPGQSPQLLIYTVSNRFSGVPDRFSGSGSGTDFTLKISRVEAEDVGVYYCSQSTHVPYTFGGGTKVEIKR
modifications: 125I-labelled (chloramine T method) in the saturation binding study
notes: Fab expressed in the E. coli periplasm; the pelB leader is removed; also called humanized H398-Fab; Fab IZI-06.1; not shown: CH1 domain of the human immunoglobulin gamma1 heavy chain
What is called Kd is the free concentration of one partner at which half of the binding sites on the other are occupied at equilibrium, for simple one-to-one binding. On to B1, for which the binding result in assay [1] is “no binding (tested: 2.5 µg/ml)”. The Kd in assay [2] worked out at 0.778 nM.

Values taken from patent US20100150916A1 (UNIVERSITAET STUTTGART, published 2010).
